Key:
AtSNAT1 = molecular target: T1, AtSNAT1 (Arabidopsis thaliana, UniProt Q7X9V3); test: HPLC of N-acetylserotonin formed; assay type: biochemical; details: serotonin 0.5 mM
T1 construct: gene NSI

[1] = substrate: COc1ccc2[nH]cc(CCN)c2c1; test: HPLC of melatonin formed, Lineweaver-Burk; assay type: biochemical, Arabidopsis thaliana; details: acetyl-CoA 0.5 mM, 100 mM potassium phosphate pH 7.8, 45 °C
[2] = substrate: NCCc1c[nH]c2ccc(O)cc12; test: HPLC of N-acetylserotonin formed, Lineweaver-Burk; assay type: biochemical, Arabidopsis thaliana; details: acetyl-CoA 0.5 mM, 100 mM potassium phosphate pH 7.8, 45 °C, printed as Km for NAS (synthesis)

T1 sequence (Q7X9V3 59-258): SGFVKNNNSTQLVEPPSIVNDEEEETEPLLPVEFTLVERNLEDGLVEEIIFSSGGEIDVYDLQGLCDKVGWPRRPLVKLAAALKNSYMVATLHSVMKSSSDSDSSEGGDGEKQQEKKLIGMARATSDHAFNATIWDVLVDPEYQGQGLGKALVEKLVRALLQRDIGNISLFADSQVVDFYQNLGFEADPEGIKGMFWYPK

Row | Molecule | HPLC of N-acetylserotonin formed (AtSNAT1) | Km [1] | Km [2]
1 | NCCc1c[nH]c2ccc(O)cc12 [serotonin] | Melatonin-mediated inhibition of NAS synthesis by recombinant AtSNAT1 |  | 
2 | AtSNAT2 (Arabidopsis thaliana) (protein, kinetics text says recombinant AtSNAT2 (not the truncated form)) MFLGGTISTPPASLRLRSTLNPQNAVTQSSSQATFPAAMQRKPPSYSISDEDLESRGFLLRRTTEGLNLDQLNSVFAAVGFPRRDTAKIEVALQHTDALLWVEYEKTRRPVAFARATGDGVFNAIIWDVVVDPSFQSCGLGKAVMERLIEDLQVKGICNIALYSEPRVLGFYRPLGFVSDPDGIKGMVFIRKQRNKK |  | 630 µM | 232 µM
